These results are taken from publication PMC3268689 (Molecular Cell, 2009).

This data set deals with the molecule itself. The data set is described as follows: SEC.

B1: PAN subcomplex I fragment (residues 74-150), coiled-coil OB-fold domain (domain or fragment, Methanocaldococcus jannaschii, UniProt Q58576 74-150, looked up)
chain: MKENEILRRELDRMRVPPLIVGTVVDKVGERKVVVKSSTGPSFLVNVSHFVNPDDLAPGKRVCLNQQTLTVVDVLPE
modifications: selenomethionine (in the crystals used for MAD phasing and refinement)
For orientation: stoichiometry N means a count of units in the complex or per binding partner. B1: the “stoichiometry N” value was 6.

B2: PAN nucleotidase domain (residues 155-430) (domain or fragment, Methanocaldococcus jannaschii, UniProt Q58576 155-430, looked up)
chain: RAKAMEVDERPNVRYEDIGGLEKQMQEIREVVELPLKHPELFEKVGIEPPKGILLYGPPGTGKTLLAKAVATETNATFIRVVGSELVKKFIGEGASLVKDIFKLAKEKAPSIIFIDEIDAIAAKRTDALTGGDREVQRTLMQLLAEMDGFDARGDVKIIGATNRPDILDPAILRPGRFDRIIEVPAPDEKGRLEILKIHTRKMNLAEDVNLEEIAKMTEGCVGAELKAICTEAGMNAIRELRDYVTMDDFRKAVEKIMEKKKVKVKEPAHLDVLYR
Turning to B2, the “stoichiometry N” value is 6.
